PMC11487272

Tests used:
[1] = target: cFLIP^tDED_H7G (cFLIP tandem DED, residues 1-181, H7G) (UniProt O15519); assay: crystal structure
[2] = target: wild-type cFLIP^tDED as used in the ternary co-purification (UniProt O15519); assay: cryo-EM structure

In the case of “cFLIP^tDED_H7G (cFLIP tandem DED, residues 1-181, H7G) (from UniProt O15519 1-181) (domain or fragment)”, the stoichiometry N (molecules in the complex) [1] is reported as 6.
For “wild-type cFLIP^tDED as used in the ternary co-purification (from UniProt O15519 1-181) (domain or fragment)”, the stoichiometry N (molecules in the complex (Complex D)) [2] was 5, the stoichiometry N (molecules in the complex (Complex E)) [2] was 6 and the stoichiometry N (molecules in the complex (Complex F)) [2] was 8. For the same substance, the stoichiometry N (molecules in the complex (Complex G)) [2] was 4.
